# In patent publication US20180112003A1 (UNIVERSITY OF SOUTHERN CALIFORNIA, published 2018):
# Columns and labels:
# [1] = target: T1, human luteinizing hormone receptor (LHR) (human, UniProt P22888 27-699); experiment: flow cytometry on ES-2 human ovarian carcinoma cells; ratio of antibody MFI to isotype MFI
# T1 construct: Endogenous LHR on human ovarian carcinoma cell lines (ES-2, SKOV3); also called LHR on ES-2 human ovarian carcinoma cells; LHR on SKOV3 cells
# Description: (§1) Antibodies against the […] extracellular hormone binding domain of LHR were generated by repeated immunization of 4 week-old-BALB/c and NIH Swiss mice with genetically engineered LHR-Fc. As shown below in FIG. 3, the leader sequence and first part of the human LHR G-protein was used to generate the LHR-Fc used in the immunization and screening methods to generate and identify high binding antibodies. […] A typical flow cytometry screen of hybridomas positive by initial ELISA screen using LHR-Fc coated plates is shown below in FIG. 4 using the ES-2 ovarian carcinoma cell line. […] These few candidate hybridomas were then subcloned by dilution in 96 well plates and expanded for freezing in vials. After further screening by flow cytometry, specific subclones were selected for large scale production using 2L vessels (GRrex, 100L, Wolfson). Filtered supernatants were then subjected to antibody purification using tandon protein A or G and ion exchange chromatography methods performed routinely in the laboratory. Once purified, five antibody subclones designated 8B7-3, 5F4-21, 5B1-1, 2H11-37, and 138-2 were sequenced to facilitate the engineering of single chain genes used for the construction of LHR CARs described below.
# [2] = target: T1, human luteinizing hormone receptor (LHR); experiment: flow cytometry screen of LHR-Fc ELISA positive hybridomas on ES-2 ovarian carcinoma cells; ratio of antibody MFI to isotype MFI
# Description: as §1
# T1 sequence (P22888 27-699 limits assumed): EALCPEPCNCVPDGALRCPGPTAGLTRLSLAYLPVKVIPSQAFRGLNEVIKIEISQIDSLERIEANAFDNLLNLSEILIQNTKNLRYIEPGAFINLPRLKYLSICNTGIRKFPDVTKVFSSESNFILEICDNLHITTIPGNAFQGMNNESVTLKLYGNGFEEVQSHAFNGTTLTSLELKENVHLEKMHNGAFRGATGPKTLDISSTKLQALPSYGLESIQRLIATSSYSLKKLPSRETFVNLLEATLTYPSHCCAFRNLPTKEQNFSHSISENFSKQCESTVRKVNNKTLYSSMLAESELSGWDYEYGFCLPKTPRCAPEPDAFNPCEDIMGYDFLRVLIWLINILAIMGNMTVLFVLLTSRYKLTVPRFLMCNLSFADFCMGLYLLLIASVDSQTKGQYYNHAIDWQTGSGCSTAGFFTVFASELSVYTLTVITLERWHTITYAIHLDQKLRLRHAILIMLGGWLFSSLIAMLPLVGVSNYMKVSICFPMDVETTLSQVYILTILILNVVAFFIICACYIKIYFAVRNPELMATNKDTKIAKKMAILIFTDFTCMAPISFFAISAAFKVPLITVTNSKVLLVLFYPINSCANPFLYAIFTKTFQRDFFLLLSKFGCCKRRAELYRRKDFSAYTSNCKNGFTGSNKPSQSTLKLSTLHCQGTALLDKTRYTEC
Binder,binding result [1],binding result [2]
"LHR Antibody #5F4-21 (antibody, V domains shown, Mouse monoclonal antibody from a hybridoma subclone) VH: EVQLQESGPDLVKPSQSLSLTCTVTGYSITSGYGWHWIRQFPGNKLEWMGYIHYSGSTTYNPSLKSRISISRDTSKNQFFLQLNSVTTEDTATYYCARSLRYWGQGTTLTVSS VL: DIVMTQTPAIMSASPGQKVTITCSASSSVNYMHWYQQKLGSSPKLWIYDTSKLAPGVPARFSGSGSGTSYSLTISSMEAEDAASYFCHQWSSYPYTFGSGTKLEIK",binds,
"LHR Antibody #8B7-3 (antibody, V domains shown, Mouse monoclonal antibody from a hybridoma; also called hybridoma 8B7) VH: QVKLQQSGPELVKPGASVKISCKASGYSFTGYYMHWVKQSHGNILDWIGYIYPYNGVSSYNQKFKGKATLTVDKSSSTAYMELRSLTSEDSAVYYCARERGLYQLRAMDYWGQGTSVTVSS VL: DIVLTQTPATLSVTPGDSVSLSCRASQSISNNLHWYQQKSHESPRLLIKNASQSISGIPSKFSGSGSGTDFTLRINSVETEDFGMYFCQQSNSWPYTFGSGTKLEIK",,binds
